Measurements: publication PMC9067669, “Allostery in the dynamic coactivator domain KIX occurs through minor conformational micro-states” (PLoS Computational Biology, 2022)
One block for each binder: values may come before it. Non-standard residues stand in square brackets, D forms with d. pS = N[C@@H](COP(=O)(O)O)C(=O)O

How the values were obtained:
[1] = target: T1, KIX domain from mouse CBP, residues 586-672 (mouse, UniProt P45481 586-672); assay: differential scanning fluorimetry (DSF); 20 uM protein with 5X SYPRO orange, incubated with 1X TAD peptide at RT for 30 minutes; 25-95°C at 1°C/min; Tm is the maximum of the first derivative, dTm the difference between protein and protein + ligand; conditions: both partners purified
T1 construct: the pRSETB vector may add further residues beside the His tag (surmise); also called apo KIX; Apo KIX(586-672); source: E. coli BL21 DE3, purified (HisTrap Ni IMAC, Source S ion exchange)

[2] = target: T2, KIX_(I660V) (KIX domain from mouse CBP, residues 586-672, I660V) (mouse, UniProt P45481 586-672, I660V); assay: as above; conditions: both partners purified
T2 construct: also called mutant KIX_(I660V); K_(I660V); source: E. coli BL21 DE3, purified (HisTrap Ni IMAC, Source S ion exchange)
T2 sequence (P45481 586-672 I660V): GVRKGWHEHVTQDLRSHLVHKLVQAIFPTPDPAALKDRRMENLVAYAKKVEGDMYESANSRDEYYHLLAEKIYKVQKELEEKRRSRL

T1 sequence (P45481 586-672): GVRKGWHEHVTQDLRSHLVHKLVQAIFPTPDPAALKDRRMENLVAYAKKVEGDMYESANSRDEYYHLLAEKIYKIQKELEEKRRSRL

B1: MLL(840-858) peptide (peptide)
peptide: Ac-DCGNILPSDIMDFVLKNTPY-NH2
notes: mixed lineage leukemia (MLL) transcription factor peptide, printed residues 840-858; last printed letter of the peptide, beyond the 19 residues of the stated range; source: synthetic peptide (HPLC purified, reduced with DTT, 98% purity)
- increase in TM [1]: 0.8 °C

- binding result [1]: binds
- binding result [2]: binds
B2: pKID(119-147) peptide, phosphorylated kinase-inducible domain of CREB (peptide)
peptide: Ac-TDSQKRREILSRRP[pS]YRKILNDLSSDAPG-NH2
SMILES: CC[C@H](C)[C@H](NC(=O)[C@H](CCCCN)NC(=O)[C@H](CCCNC(=N)N)NC(=O)[C@H](Cc1ccc(O)cc1)NC(=O)[C@H](COP(=O)(O)O)NC(=O)[C@@H]1CCCN1C(=O)[C@H](CCCNC(=N)N)NC(=O)[C@H](CCCNC(=N)N)NC(=O)[C@H](CO)NC(=O)[C@H](CC(C)C)NC(=O)[C@@H](NC(=O)[C@H](CCC(=O)O)NC(=O)[C@H](CCCNC(=N)N)NC(=O)[C@H](CCCNC(=N)N)NC(=O)[C@H](CCCCN)NC(=O)[C@H](CCC(N)=O)NC(=O)[C@H](CO)NC(=O)[C@H](CC(=O)O)NC(=O)[C@@H](NC(C)=O)[C@@H](C)O)[C@@H](C)CC)C(=O)N[C@@H](CC(C)C)C(=O)N[C@@H](CC(N)=O)C(=O)N[C@@H](CC(=O)O)C(=O)N[C@@H](CC(C)C)C(=O)N[C@@H](CO)C(=O)N[C@@H](CO)C(=O)N[C@@H](CC(=O)O)C(=O)N[C@@H](C)C(=O)N1CCC[C@H]1C(=O)NCC(N)=O
notes: kinase-inducible domain of CREB, residues 119-147, phosphorylated; source: synthetic peptide (HPLC purified, >90% purity)
